From patent US20040166183A1, “Methods and means for preventing or treating inflammation or pruritis” (priority 1998, published 2004)

Columns and labels:
[1] = tested on: peri-stomal and peri-anal irritation caused by feces; conditions: applied topically; cited from earlier work
[2] = tested on: therapy-resistant atopic dermatitis; conditions: small study; cited from earlier work
[3] = tested on: proteolytic activity in feces of ileostomy dog / pouch dog; experiment: Inhibition of proteolytic activity in feces of ileostomy and pouch dogs (azocasein); format: biochemical
Protocol: Fecal samples from 20 colectomized dogs, purebred Beagles (Harlan) were collected. Three ileostomy groups were studied. In ten dogs a standard Brooke ileostomy was constructed by subtotal colectomy. In five dogs a valveless ileal reservoir (pouch) was fashioned by a side-to-side iso-antiperistaltic anastomosis. After a recovery period of 2 weeks a schedule of increasing periods of occlusion was started, except for 5 dogs. The maximum tolerable occlusion time was 2.5-3 h for the ileostomy group and 4-7 h for the reservoir group. In five dogs a continent ileostomy (Kock's pouch) was constructed, which was emptied 2-5 times per 24 hours by catheterization.
(§1) Feces was frozen and stored at −20° C. within 3 h of passage. […] Samples of 1 g were transferred to 24 vol of 0.1 M phosphate buffer pH 7.6 and homogenized (‘Stomacher’, Lab blender 400). Coarse particles were removed from the homogenates by gauze filtration (Utermohlen, refolded to 2 layers); these samples are further referred to as ‘fecal homogenates’.
Proteolytic activity was determined in the fecal homogenates in appropriate dilutions (up to 250-fold) in 0.1 M phosphate buffer (pH 7.6). Penicilline (0.1% w/v) was added to prevent bacterial growth. In the more recent inhibition tests no penicillin was used. […] The reaction was stopped by addition of 0.2 ml 10% (w/v) trichloroacetic acid (TCA); after 10 min at room temperature unhydrolysed azocasein, bacteria and other particles were removed by centrifugation at 10,000 rpm during 10 min. Then 0.1 ml of the clear supernatant was transferred to 0.1 ml of 1 N NaOH in flatbottom 24 wells microplates. To the blank assays azocasein was added after incubation an addition of TCA. The absorption of the samples was measured at 450 nm and compared with standard curves obtained from solutions of azocasein. Proteolytic activity was expressed as milligrams azocasein hydrolysed during 1 h per gram dry or wet weight of sample. Each diluted sample was tested for other than enzymatic substrate hydrolysis after heating at 80° C. for 10 min. Spontaneous substrate hydrolysis was tested by incubation of the substrate with buffer.
(§2) In most of the experiments the inhibitor was added to feces (diluted 1:25 in buffer), mixed for 5-15 min and added to the substrate; PJ-powder was added to undiluted feces (1:1) and after mixing, diluted (1:25) with buffer. In each experiment controls were assayed (sterilized feces, sterilized inhibitors, buffer solutions).

[4] = target: T1, bovine pancreatic trypsin (Bos taurus, UniProt P00760); experiment: Effect of protease inhibitors on purified enzymes: trypsin (azocasein); format: biochemical; conditions: for % Inhibition of the proteolytic activity, trypsin: STI, STI-A, -B, -C 0.125% end concentration, enzyme 0.02%, Trasylol undil., PJ: 1 g PJ powder mixed with 2 ml and with 4 ml buffer; for inhibition of trypsin activity: preliminary experiments
T1 construct: purchased Serva; host or cells: bovine pancreas
T1 sequence (P00760 24-246): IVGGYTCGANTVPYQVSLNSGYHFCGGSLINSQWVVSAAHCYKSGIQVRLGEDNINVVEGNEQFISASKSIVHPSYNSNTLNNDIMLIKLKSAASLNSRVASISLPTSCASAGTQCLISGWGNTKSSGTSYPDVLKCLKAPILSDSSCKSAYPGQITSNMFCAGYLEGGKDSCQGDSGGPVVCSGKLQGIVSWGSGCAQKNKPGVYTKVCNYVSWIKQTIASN
Protocol: (§3) Proteolytic activity was determined in the fecal homogenates in appropriate dilutions (up to 250-fold) in 0.1 M phosphate buffer (pH 7.6). Penicilline (0.1% w/v) was added to prevent bacterial growth. In the more recent inhibition tests no penicillin was used. Samples of 0.1 ml were incubated with 0.1 ml 1% (w/v) azocasein (Sigma) in phosphate buffer at 37° C. during 1 h. The reaction was stopped by addition of 0.2 ml 10% (w/v) trichloroacetic acid (TCA); after 10 min at room temperature unhydrolysed azocasein, bacteria and other particles were removed by centrifugation at 10,000 rpm during 10 min. Then 0.1 ml of the clear supernatant was transferred to 0.1 ml of 1 N NaOH in flatbottom 24 wells microplates. To the blank assays azocasein was added after incubation an addition of TCA. The absorption of the samples was measured at 450 nm and compared with standard curves obtained from solutions of azocasein. Proteolytic activity was expressed as milligrams azocasein hydrolysed during 1 h per gram dry or wet weight of sample. Each diluted sample was tested for other than enzymatic substrate hydrolysis after heating at 80° C. for 10 min. Spontaneous substrate hydrolysis was tested by incubation of the substrate with buffer.
as §2
bovine pancreatic trypsin (Serva)
(§4) All enzymes were used in a concentration of 0.2% (w/v) in buffer.
(§5) enzyme concentration was 0.02%, inhibitor concentration (end concentration) was 0.125%.

[5] = target: T2, bovine pancreatic α-chymotrypsin (Bos taurus, UniProt P00766); experiment: Effect of protease inhibitors on purified enzymes: chymotrypsin (azocasein); format: biochemical; conditions: for % Inhibition of the proteolytic activity, chymotrypsin: STI, STI-A, -B, -C 0.125% end concentration, enzyme 0.02%, Trasylol undil., PJ: 1 g PJ powder mixed with 2 ml and with 4 ml buffer; for inhibition of α-chymotrypsin activity: preliminary experiments
T2 construct: purchased Merck, Sigma; host or cells: bovine pancreas
Protocol: as §3, §2
bovine pancreatic α-chymotrypsin (Merck, Sigma)
as §4, §5

[6] = tested on: bovine pancreatic elastase; experiment: Effect of protease inhibitors on purified enzymes: elastase (azocasein); format: biochemical; conditions: STI, STI-A, -B, -C 0.125% end concentration, enzyme 0.02%; Trasylol undil.; PJ: 1 g PJ powder mixed with 2 ml and with 4 ml buffer
Protocol: as §3, with “buffer. […]” for “buffer.”

[7] = tested on: supernatant from feces of a patient with an ileum reservoir with a high proteolytic activity, on skin; experiment: Skin test on the fore-arm with fecal supernatant and STI; format: in vivo, human; conditions: 7 h incubation on fore-arm
Protocol: Skin tests were performed on the ventral part of the fore-arm. The following solutions were tested: 1. supernatant from feces of a patient with an ileum reservoir with a high proteolytic activity; 2. the same supernatant, but sterilised; 3. supernatant with 0.25% STI (w/v) and 4. 0.25% STI in buffer. Two hundred μl of each solution were placed on folded cambric on the skin and covered with plastic and adhesion wound pad. Total incubation time was 7 h, but after 3 and 5 h 100 μl buffer was added to each of the test patches to prevent dehydration.
After removing the pads and the cambric the skin was carefully cleaned with tap water and judged immediately and after 1-18 h.

[8] = target: T3, lesional elastase activity in psoriasis, contact dermatitis and atopic dermatitis (Homo sapiens, UniProt P08246); conditions: in vitro; Wiedow et al, Dermatol 1992; cited from earlier work
T3 sequence (P08246 30-267): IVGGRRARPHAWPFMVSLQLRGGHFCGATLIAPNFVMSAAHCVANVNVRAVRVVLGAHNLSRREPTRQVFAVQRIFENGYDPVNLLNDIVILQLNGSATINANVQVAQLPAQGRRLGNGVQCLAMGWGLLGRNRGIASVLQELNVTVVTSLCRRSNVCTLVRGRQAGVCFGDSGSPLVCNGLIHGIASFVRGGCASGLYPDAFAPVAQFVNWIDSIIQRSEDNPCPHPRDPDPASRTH

[9] = tested on: pronase; experiment: Effect of protease inhibitors on purified enzymes: pronase (azocasein); format: biochemical; conditions: STI-A, -B, -C 0.125% end concentration, enzyme 0.02%; PJ: 1 g PJ powder mixed with 2 ml and with 4 ml buffer
Protocol: as §3, with “buffer. […]” for “buffer.”

[10] = target: T4, papaine (Carica papaya, UniProt P00784); experiment: Effect of protease inhibitors on purified enzymes: papain (azocasein); format: biochemical; conditions: STI-A, -B, -C 0.125% end concentration, enzyme 0.02%; PJ: 1 g PJ powder mixed with 2 ml and with 4 ml buffer
T4 construct: purchased Sigma
T4 sequence (P00784 134-345): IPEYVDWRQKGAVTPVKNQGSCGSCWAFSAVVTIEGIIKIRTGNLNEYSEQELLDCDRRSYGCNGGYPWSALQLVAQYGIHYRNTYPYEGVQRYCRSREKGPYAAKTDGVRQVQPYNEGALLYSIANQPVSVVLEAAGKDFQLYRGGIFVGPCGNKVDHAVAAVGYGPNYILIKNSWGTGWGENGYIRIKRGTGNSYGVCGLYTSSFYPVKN
Protocol: as §3, with “buffer. […]” for “buffer.”

[11] = tested on: proteolytic activity in feces of CD patients; experiment: Inhibition of proteolytic activity in feces of CD patients (azocasein); format: biochemical, human; conditions: n = 4, inhibitor added to feces 1:2000 diluted, 20 h incubated with substrate
From the text: Fecal samples from twenty-seven patients with Crohn's disease (CD) were studied. Twelve patients, aged 27-58 years, had undergone intestinal surgery 3-12 years previously; locations of the resections were terminal ileum, ileum and caecum, and colon. A second group of patients was not operated; the principal sites of inflammation were ileum, ileum and colon, and colon. The diagnosis CD was established with the usual clinical, radiological and histopathological critria. All patients were outpatients.
as §1
Proteolytic activity was determined in the fecal homogenates in appropriate dilutions (up to 250-fold) in 0.1 M phosphate buffer (pH 7.6). Penicilline (0.1% w/v) was added to prevent bacterial growth. In the more recent inhibition tests no penicillin was used. […] The absorption of the samples was measured at 450 nm and compared with standard curves obtained from solutions of azocasein. Proteolytic activity was expressed as milligrams azocasein hydrolysed during 1 h per gram dry or wet weight of sample. […]

[12] = Ileostomy dog, n = 1*, inhibitor added to feces 1:2000 diluted, 20 h incubated with substrate, STI 1%
[13] = dog, n = 3°, inhibitor added to feces diluted 1:100, 2 h incubated, STI 1%

sucralfate
peri-stomal and peri-anal irritation caused by feces [1]: reduce

alpha1-proteinase inhibitor: protease inhibitor cited from the literature
effect on therapy-resistant atopic dermatitis [2]: wound healing effect

B1: STI: Trypsin inhibitor II-from Soybean (T-9003; Sigma) (protein, UniProt P01070 25-205, looked up)
Trypsin inhibitor A: DFVLDNEGNPLENGGTYYILSDITAFGGIRAAPTGNERCPLTVVQSRNELDKGIGTIISSPYRIRFIAEGHPLSLKFDSFAVIMLCVGIPTEWSVVEDLPEGPAVKIGENKDAMDGWFRLERVSDDEFNNYKLVFCPQQAEDDKCGDIGISIDHDDGTRRLVVSKNKPLVVQFQKLDKESL
% inhibition of the proteolytic activity [3, 12]: 93%
% inhibition of the proteolytic activity ([3]; STI 0.25%, dog, n = 3°, feces diluted 1:100, 2 h incubated): 63%
% inhibition of the proteolytic activity ([3]; STI 0.5%, dog, n = 3°, feces diluted 1:100, 2 h incubated): 61%
% inhibition of the proteolytic activity ([3]; STI 0.75%, dog, n = 3°, feces diluted 1:100, 2 h incubated): 45%
inhibition of the proteolytic activity ([3]; STI in a concentration of 1% (w/v)): > 80%
% inhibition of the proteolytic activity [3, 13]: 84%
% Inhibition of the proteolytic activity, trypsin [4]: 99%
% Inhibition of the proteolytic activity, chymotrypsin [5]: 99%
% Inhibition of the proteolytic activity, elastase [6]: 15%
skin reaction ([7]; location 3: fecal supernatant with 0.25% STI (w/v), supernatant alone: moderate redness, papulas, some vesiculas): slight redness that disappeared within 60 min
skin reaction ([7]; location 4: 0.25% STI in buffer): No reaction
effect on lesional elastase activity [8]: inhibitotory effect

B2: STI-A: STI-type I-S Sigma T 9003 (protein, UniProt P01070 25-205, looked up)
Trypsin inhibitor A: DFVLDNEGNPLENGGTYYILSDITAFGGIRAAPTGNERCPLTVVQSRNELDKGIGTIISSPYRIRFIAEGHPLSLKFDSFAVIMLCVGIPTEWSVVEDLPEGPAVKIGENKDAMDGWFRLERVSDDEFNNYKLVFCPQQAEDDKCGDIGISIDHDDGTRRLVVSKNKPLVVQFQKLDKESL
% Inhibition of the proteolytic activity, trypsin [4]: 100%
inhibition of trypsin activity [4]: larger part
% Inhibition of the proteolytic activity, chymotrypsin [5]: 80%
inhibition of α-chymotrypsin activity [5]: larger part
% Inhibition of the proteolytic activity, elastase [6]: 50%
% Inhibition of the proteolytic activity, pronase [9]: 0%
% Inhibition of the proteolytic activity, papain [10]: 0%

B3: ovomucoid: protease inhibitor, 1% (w/v) in 0.1 M phosphate buffer pH 7.6 (protein, UniProt P01005 25-210, looked up)
Ovomucoid: AEVDCSRFPNATDKEGKDVLVCNKDLRPICGTDGVTYTNDCLLCAYSIEFGTNISKEHDGECKETVPMNCSSYANTTSEDGKVMVLCNRAFNPVCGTDGVTYDNECLLCAHKVEQGASVDKRHDGGCRKELAAVSVDCSEYPKPDCTAEDRPLCGSDNKTYGNKCNFCNAVVESNGTLTLSHFGKC
% inhibition of the proteolytic activity [11]: 68%
% inhibition of the proteolytic activity [3, 12]: 93%
% inhibition of the proteolytic activity ([3]; dog, n = 1†, undiluted feces + inhibitor (3 + 1), mixing for 2 h, then diluted 1:100): 52%
% inhibition of the proteolytic activity [3, 13]: 84%
inhibition of trypsin activity [4]: larger part
inhibition of α-chymotrypsin activity [5]: larger part
